The source of these data is PMC2114792.

The stoichiometry N is the number of molecules, sites or subunits per partner or assembly.

The target of experiment [1] is rat hexabrachion (rat (endogenous in normal rat kidney cells)). Kind of experiment: rotary shadowing electron microscopy.
For experiment [2], the target named is mouse hexabrachion (mouse (endogenous in 3T3 cells)) (UniProt Q80YX1). Kind of experiment: rotary shadowing electron microscopy.

In experiment [1], rat hexabrachion gave a stoichiometry N of 6.

With mouse hexabrachion, Q80YX1 23-2110, the stoichiometry N in experiment [2] was 6.
